Laboratory results reported in publication PMC10968536.

Legend:
[1] = test system: HalTzlAGA (synthetic (no organism)); experiment: fluorescence anisotropy; details: Fluorescence anisotropy: 100 nM FAM-TAR in TB buffer, 25 °C, 20 min, ex 480/em 518 nm, one-site fit; CD: 5 µM TAR with 50 µM nucleopeptide (Methods; abstract …)
[2] = test system: HalTzlTCCCAG (synthetic (no organism)); experiment: fluorescence anisotropy; details: Fluorescence anisotropy: 100 nM FAM-TAR in TB buffer, 25 °C, 20 min, ex 480/em 518 nm, one-site fit; CD: 5 µM TAR with 50 µM nucleopeptide (Methods; abstract …)

In the case of “CCAGAUCUGAGCCUGGGAGCUCUCUGG [5'-FAM(6)-TAR UCU]”, the Kd [1] is reported as 256 µM and the Kd [2] is reported as 38.3 µM.
